Results: patent publication US20190359663A1

Experiments:
[1] = target: wild type human L-FABP protein (liver-type fatty acid-binding protein) (human) (UniProt P07148); test: sandwich ELISA (RENAPRO L-FABP test TMB); L-FABP reacted with 0 to 5 mM AAPH for 1 h at room temperature with BSA; untreated sample = 100
[2] = target: L-FABP M19L/M74L/M113L (human) (UniProt P07148); test: as above
[3] = target: wild type human L-FABP protein (liver-type fatty acid-binding protein) (human) (UniProt P07148); test: sandwich ELISA (RENAPRO L-FABP Test TMB) with 1 mass % BSA; arachidonic acid added to L-FABP at various concentrations, 1.5 h room temperature; untreated sample = 100
[4] = target: L-FABP M19L/M74L/M113L (human) (UniProt P07148); test: as above
[5] = target: wild type human L-FABP protein (liver-type fatty acid-binding protein) (human) (UniProt P07148); test: sandwich ELISA (RENAPRO L-FABP Test TMB); L-FABP stored at 37 C with BSA, measured every week for four weeks; sample stored at -80 C = 100
[6] = target: L-FABP M19L/M74L/M113L (human) (UniProt P07148); test: as above
[7] = target: wild type human L-FABP protein (liver-type fatty acid-binding protein) (human) (UniProt P07148); test: sandwich ELISA (RENAPRO L-FABP Test TMB); L-FABP stored at 25 C with BSA, measured every week for four weeks; sample stored at -80 C = 100
[8] = target: L-FABP M19L/M74L/M113L (human) (UniProt P07148); test: as above
[9] = target: wild type human L-FABP protein (liver-type fatty acid-binding protein) (human) (UniProt P07148); test: ELISA (kit not named in this example); OD ratio with and without oxidation treatment with 10 mM AAPH for 1 h at 25 C; FIG. 21
[10] = target: L-FABP WT treated with 4 mM AAPH (human) (UniProt P07148); test: as above
[11] = target: L-FABP M19L/M74L/M113L (human) (UniProt P07148); test: as above
[12] = target: L-FABP WT treated with 0.5 mM AAPH (human) (UniProt P07148); test: as above
[13] = target: wild type human L-FABP protein (liver-type fatty acid-binding protein) (human) (UniProt P07148); test: sandwich ELISA; L-FABP stored at 37 C for two weeks in BSA-containing buffer; sample stored at 4 C = 100 (FIG. 20)
[14] = target: L-FABP bound to oleic acid (human) (UniProt P07148); test: as above
[15] = target: wild type human L-FABP protein (liver-type fatty acid-binding protein) (human) (UniProt P07148); test: sandwich ELISA; L-FABP stored at 37 C for two weeks in BSA-containing buffer; sample stored at 4 C = 100 (FIG. 19)
[16] = target: L-FABP bound to arachidonic acid (human) (UniProt P07148); test: as above
[17] = target: wild type human L-FABP protein (liver-type fatty acid-binding protein) (human) (UniProt P07148); test: sandwich ELISA (RENAPRO L-FABP Test TMB) with 1 mass % BSA; 8-iso-prostaglandin F2α added to L-FABP at various concentrations, 1.5 h room temperature; untreated sample = 100
[18] = target: L-FABP M19L/M74L/M113L (human) (UniProt P07148); test: as above
[19] = target: L-FABP that had been oxidation-treated with 40 mM AAPH (human) (UniProt P07148); test: sandwich ELISA (RENAPRO L-FABP Test TMB); L-FABP stored at 37 C, measured every week for two weeks; sample stored at 4 C = 100
[20] = target: wild type human L-FABP protein (liver-type fatty acid-binding protein) (human) (UniProt P07148); test: as above
[21] = target: wild type human L-FABP protein (liver-type fatty acid-binding protein) (human) (UniProt P07148); test: sandwich ELISA (RENAPRO L-FABP Test TMB) with 1 mass % BSA; oleic acid added to L-FABP at various concentrations, 1.5 h room temperature; untreated sample = 100
[22] = target: L-FABP M19L/M74L/M113L (human) (UniProt P07148); test: as above
[23] = target: wild type human L-FABP protein (liver-type fatty acid-binding protein) (human) (UniProt P07148); test: ELISA (kit not named in this example); OD ratio with and without oxidation treatment with 10 mM AAPH for 1 h at 25 C; FIG. 23
[24] = target: L-FABP WT treated with 4 mM AAPH (human) (UniProt P07148); test: as above
[25] = target: L-FABP M19L/M74L/M113L (human) (UniProt P07148); test: as above
[26] = target: L-FABP M19L/M113L (human) (UniProt P07148); test: as above
[27] = target: L-FABP WT treated with 0.5 mM AAPH (human) (UniProt P07148); test: as above
[28] = target: L-FABP bound to arachidonic acid (human) (UniProt P07148); test: as above
[29] = target: L-FABP M19L (human) (UniProt P07148); test: as above
[30] = target: L-FABP bound to oleic acid (human) (UniProt P07148); test: as above

ELISA measured value (OD 450 nm), % of untreated sample [1]: 112 to 121% | ELISA measured value (OD 450 nm), % of untreated sample [2]: 102 to 107% | ELISA measured value (OD 450 nm), % of untreated sample [3]: 104 to 220% | ELISA measured value (OD 450 nm), % of untreated sample [4]: 88 to 103% | ELISA measured value (OD 450 nm), % of sample stored at -80 C [5]: 117 to 143% | ELISA measured value (OD 450 nm), % of sample stored at -80 C [6]: 104 to 113% | ELISA measured value (OD 450 nm), % of sample stored at -80 C [7]: 110 to 128% | ELISA measured value (OD 450 nm), % of sample stored at -80 C [8]: 101 to 111% | coefficient of change in oxidation (OD ratio, oxidation-treated / not treated) [9]: 1.8 | coefficient of change in oxidation (OD ratio, oxidation-treated / not treated) [10]: < 1.3 | coefficient of change in oxidation (OD ratio, oxidation-treated / not treated) [11]: < 1.3 | coefficient of change in oxidation (OD ratio, oxidation-treated / not treated) [12]: < 1.3 | ELISA measured value, % of sample stored at 4 C [13]: 120 to 130% | ELISA measured value, % of sample stored at 4 C [14]: 100 to 110% | ELISA measured value, % of sample stored at 4 C [15]: 118 to 132% | ELISA measured value, % of sample stored at 4 C [16]: 99.9 to 100% | ELISA measured value (OD 450 nm), % of untreated sample [17]: 95 to 118% | ELISA measured value (OD 450 nm), % of untreated sample [18]: 96 to 101% | ELISA measured value (OD 450 nm), % of sample stored at 4 C [19]: 94 to 102% | ELISA measured value (OD 450 nm), % of sample stored at 4 C [20]: 114 to 130% | ELISA measured value (OD 450 nm), % of untreated sample [21]: 100 to 124% | ELISA measured value (OD 450 nm), % of untreated sample [22]: 92 to 107% | coefficient of change in oxidation (OD ratio, oxidation-treated / not treated) [23]: 1.8 | coefficient of change in oxidation (OD ratio, oxidation-treated / not treated) [24]: < 1.4 | coefficient of change in oxidation (OD ratio, oxidation-treated / not treated) [25]: < 1.4 | coefficient of change in oxidation (OD ratio, oxidation-treated / not treated) [26]: < 1.4 | coefficient of change in oxidation (OD ratio, oxidation-treated / not treated) [27]: < 1.4 | coefficient of change in oxidation (OD ratio, oxidation-treated / not treated) [28]: < 1.4 | coefficient of change in oxidation (OD ratio, oxidation-treated / not treated) [29]: < 1.4 | coefficient of change in oxidation (OD ratio, oxidation-treated / not treated) [30]: < 1.4
Substance: labeled antibody of the sandwich ELISA kit RENAPRO L-FABP Test TMB (CMIC HOLDINGS Co., Ltd.)
